The values below come from patent US20230395187A1 (published 2023).

The target in this experiment is SARS-CoV-2 spike protein, WT (SARS-CoV-2, UniProt P0DTC2 14-1208). The experiment can be described thus: virus-free Luminex binding assay, spike on beads.

B1: Imdevimab (RGN87) (antibody, V domains shown)
VH: QVQLVESGGGVVQPGRSLRLSCAASGFTFSNYAMYWVRQAPGKGLEWVAVISYDGSNKYYADSVKGRFTISRDNSKNTLYLQMNSLRTEDTAVYYCASGSDYGDYLLVYWGQGTLVTVSS
VL: QSALTQPASVSGSPGQSITISCTGTSSDVGGYNYVSWYQQHPGKAPKLMIYDVSKRPSGVSNRFSGSKSGNTASLTISGLQSEDEADYYCNSLTSISTWVFGGGTKLTVLG
What is called EC50 is the concentration that produces a half-maximal response. A lower EC50 goes with an effect from little substance. Consider B1, for which it took 0.082 µg/mL to reach a half-maximal effect (EC50).
